This is an account of results in article PMC9427789, “Prediction of the structural interface between fibroblast growth factor23 and Burosumab using alanine scanning and molecular docking” (Scientific Reports, 2022).

Holding throughout (conditions): both partners purified
Assay [1] addresses T1, His-SUMO-FGF23 (N-terminal domain of human FGF23, wild type) (Homo sapiens, UniProt Q9GZV9).
T1 construct: FGF23, human, N-terminal domain; also called wild-type FGF23; source: E. coli BL21(DE3), purified (Ni-NTA); not shown: His, N-terminal, kept; SUMO, N-terminal, kept
As to the kind of experiment: ELISA; spot-check ELISA: FGF23 coated at 2 µg/mL on Maxisorp plates (4 °C overnight), Burosumab or its alanine mutants at two concentrations (0.04 and 1.2 µg/mL), room temperature 2 h, anti-human IgG H&L-HRP, A450; fold change from A450 against wild-type Burosumab.

In assay [2] the target is T2, His-SUMO-FGF23 Y124A (N-terminal domain of human FGF23) (Homo sapiens, UniProt Q9GZV9, Y124A).
T2 construct: FGF23, human, N-terminal domain; source: E. coli BL21(DE3), purified (Ni-NTA); not shown: His, N-terminal, kept; SUMO, N-terminal, kept
T2 sequence (Q9GZV9 25-204 Y124A): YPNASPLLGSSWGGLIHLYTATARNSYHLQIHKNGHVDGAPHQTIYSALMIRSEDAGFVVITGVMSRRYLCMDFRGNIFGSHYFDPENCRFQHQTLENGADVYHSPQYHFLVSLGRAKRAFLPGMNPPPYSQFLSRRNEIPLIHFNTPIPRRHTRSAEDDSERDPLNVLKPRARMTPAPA
As to the kind of experiment: ELISA; indirect ELISA: FGF23 or its mutants coated at 2 µg/mL on Maxisorp plates (4 °C overnight), Burosumab or its variants three-fold serially diluted in PBS from 9 µg/mL, room temperature 2 h, anti-human IgG H&L-HRP, A450; fold change from Kd values against the wild type.

Assay [3] addresses T3, His-SUMO-FGF23 H117A (N-terminal domain of human FGF23) (Homo sapiens, UniProt Q9GZV9, H117A).
T3 construct: FGF23, human, N-terminal domain; source: E. coli BL21(DE3), purified (Ni-NTA); not shown: His, N-terminal, kept; SUMO, N-terminal, kept
Described as above.

The target of assay [4] is T4, His-SUMO-FGF23 R160A-R161A (N-terminal domain of human FGF23) (Homo sapiens, UniProt Q9GZV9, R160A | R161A).
T4 construct: FGF23, human, N-terminal domain; also called combined R160A and R161A; double alanine mutant; source: E. coli BL21(DE3), purified (Ni-NTA); not shown: His, N-terminal, kept; SUMO, N-terminal, kept
T4 sequence (Q9GZV9 25-204 R160A/R161A): as the sequence (Q9GZV9 25-204 Y124A) above, with A100Y, R136A, R137A counted along it
The description is as above.

Assay [5] has as its target T1, His-SUMO-FGF23 (N-terminal domain of …). The assay is described as above.

T1 sequence (Q9GZV9 25-204): as the sequence (Q9GZV9 25-204 Y124A) above, with A100Y counted along it
T3 sequence (Q9GZV9 25-204 H117A): as the sequence (Q9GZV9 25-204 Y124A) above, with H93A, A100Y counted along it

B1: Burosumab (wild type) (antibody, V domains shown)
VH: QVQLVQSGAEVKKPGASVKVSCKASGYTFTNHYMHWVRQAPGQGLEWMGIINPISGSTSNAQKFQGRVTMTRDTSTSTVYMELSSLRSEDTAVYYCARDIVDAFDFWGQGTMVTVSS
VL: AIQLTQSPSSLSASVGDRVTITCRASQGISSALVWYQQKPGKAPKLLIYDASSLESGVPSRFSGSGSGTDFTLTISSLQPEDFATYYCQQFNDYFTFGPGTKVDIK
notes: heavy chain of Burosumab; light chain of Burosumab; Whole antibody, detected with anti-human IgG H&L. The results say HEK293T, the methods HEK293-F FreeStyle; Residue numbers are Chothia; also called Crysvita; WT Burosumab; source: HEK293-F FreeStyle, transiently transfected, purified (Protein A agarose)
Regarding B1, in assay [1], the binding result is listed as “binds”. Besides, the “fold decrease in binding against wild-type FGF23” value in assay [2] is around 50 fold; in assay [3], above 100 fold; in assay [4], 7 fold.

B2: Burosumab variant with combined VH:V97A and VL:A32S mutations (antibody, V domains shown)
VH: QVQLVQSGAEVKKPGASVKVSCKASGYTFTNHYMHWVRQAPGQGLEWMGIINPISGSTSNAQKFQGRVTMTRDTSTSTVYMELSSLRSEDTAVYYCARDIADAFDFWGQGTMVTVSS
VL: AIQLTQSPSSLSASVGDRVTITCRASQGISSSLVWYQQKPGKAPKLLIYDASSLESGVPSRFSGSGSGTDFTLTISSLQPEDFATYYCQQFNDYFTFGPGTKVDIK
notes: as the heavy chain of m1; as the light chain of m1; also called combined Burosumab variant; double mutant; source: HEK293-F FreeStyle, transiently transfected, purified (Protein A agarose)
With B2, in assay [5], the “fold improvement of binding against wild-type Burosumab” value came to 3.7 fold.

B3: Burosumab VH:V97A (antibody, V domains shown)
VH: QVQLVQSGAEVKKPGASVKVSCKASGYTFTNHYMHWVRQAPGQGLEWMGIINPISGSTSNAQKFQGRVTMTRDTSTSTVYMELSSLRSEDTAVYYCARDIADAFDFWGQGTMVTVSS
VL: AIQLTQSPSSLSASVGDRVTITCRASQGISSALVWYQQKPGKAPKLLIYDASSLESGVPSRFSGSGSGTDFTLTISSLQPEDFATYYCQQFNDYFTFGPGTKVDIK
notes: as the heavy chain of m1; as the light chain of m1; source: HEK293-F FreeStyle, transiently transfected, purified (Protein A agarose)
For B3, the “fold improvement of binding affinity against wild-type Burosumab” value in assay [1] came out at 1.2 fold.

B4: Burosumab VH:D98A (antibody, V domains shown)
VH: QVQLVQSGAEVKKPGASVKVSCKASGYTFTNHYMHWVRQAPGQGLEWMGIINPISGSTSNAQKFQGRVTMTRDTSTSTVYMELSSLRSEDTAVYYCARDIVAAFDFWGQGTMVTVSS
VL: AIQLTQSPSSLSASVGDRVTITCRASQGISSALVWYQQKPGKAPKLLIYDASSLESGVPSRFSGSGSGTDFTLTISSLQPEDFATYYCQQFNDYFTFGPGTKVDIK
notes: as for B3
On to B4, for which the “fold decrease in binding against wild-type Burosumab” value in assay [1] was 2.62 fold.

B5: Burosumab VL:A32S (antibody, V domains shown)
VH: QVQLVQSGAEVKKPGASVKVSCKASGYTFTNHYMHWVRQAPGQGLEWMGIINPISGSTSNAQKFQGRVTMTRDTSTSTVYMELSSLRSEDTAVYYCARDIVDAFDFWGQGTMVTVSS
VL: AIQLTQSPSSLSASVGDRVTITCRASQGISSSLVWYQQKPGKAPKLLIYDASSLESGVPSRFSGSGSGTDFTLTISSLQPEDFATYYCQQFNDYFTFGPGTKVDIK
notes: as for B3
With B5, the “fold improvement of binding affinity against wild-type Burosumab” value in assay [5] was found to be 1.6 fold.

B6: Burosumab VL:F96A (antibody, V domains shown)
VH: QVQLVQSGAEVKKPGASVKVSCKASGYTFTNHYMHWVRQAPGQGLEWMGIINPISGSTSNAQKFQGRVTMTRDTSTSTVYMELSSLRSEDTAVYYCARDIVDAFDFWGQGTMVTVSS
VL: AIQLTQSPSSLSASVGDRVTITCRASQGISSALVWYQQKPGKAPKLLIYDASSLESGVPSRFSGSGSGTDFTLTISSLQPEDFATYYCQQFNDYATFGPGTKVDIK
notes: as the heavy chain of m1; as the light chain of m1; also called F96A (LCDR3); source: HEK293-F FreeStyle, transiently transfected, purified (Protein A agarose)
In the case of B6, the “fold decrease in binding against wild-type Burosumab” value in assay [1] was 2.32 fold.

B7: Burosumab VL:D50A (antibody, V domains shown)
VH: QVQLVQSGAEVKKPGASVKVSCKASGYTFTNHYMHWVRQAPGQGLEWMGIINPISGSTSNAQKFQGRVTMTRDTSTSTVYMELSSLRSEDTAVYYCARDIVDAFDFWGQGTMVTVSS
VL: AIQLTQSPSSLSASVGDRVTITCRASQGISSALVWYQQKPGKAPKLLIYAASSLESGVPSRFSGSGSGTDFTLTISSLQPEDFATYYCQQFNDYFTFGPGTKVDIK
notes: as the heavy chain of m1; as the light chain of m1; also called D50A (LCDR2); source: HEK293-F FreeStyle, transiently transfected, purified (Protein A agarose)
Regarding B7, in assay [1], the binding result was “no binding” and the “fold decrease in binding against wild-type Burosumab” value is above 100 fold.
